{"source": "patent US10562947B2", "about": "“Compositions and methods for preventing or treating diseases, conditions or processes characterized by aberrant fibroblast proliferation and extracellular matrix deposition” (MOERAE MATRIX, INC., priority 2011, dated 2020)", "assay_in_all_cases": "Kinase Profiling Assay", "assay_type_in_all_cases": "biochemical", "settings_in_all_cases": "100 μM peptide", "key": {"CaMKIIδ(h)": {"target": "CaMKIIδ(h) (Homo sapiens, UniProt Q13557)", "sequence (Q13557 whole entry)": "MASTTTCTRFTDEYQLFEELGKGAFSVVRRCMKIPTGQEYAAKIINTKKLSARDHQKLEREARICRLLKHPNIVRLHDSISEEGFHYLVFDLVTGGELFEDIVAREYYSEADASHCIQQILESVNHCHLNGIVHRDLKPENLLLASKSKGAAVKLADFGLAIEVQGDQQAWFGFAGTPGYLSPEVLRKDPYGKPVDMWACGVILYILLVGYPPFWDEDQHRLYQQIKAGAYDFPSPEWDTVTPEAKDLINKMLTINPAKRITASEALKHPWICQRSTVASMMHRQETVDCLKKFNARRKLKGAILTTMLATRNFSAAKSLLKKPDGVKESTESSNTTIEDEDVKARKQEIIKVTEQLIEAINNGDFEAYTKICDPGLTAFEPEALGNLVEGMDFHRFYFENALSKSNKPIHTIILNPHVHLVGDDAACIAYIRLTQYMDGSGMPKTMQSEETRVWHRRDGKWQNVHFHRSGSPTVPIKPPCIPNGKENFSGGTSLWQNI", "method_in_brief": "(§1)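 All 266 human kinases of a profiling service were assayed in duplicate to establish whether MK2 inhibitory peptides act specifically.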"}, "Src(1-530)(h)": {"target": "T1, Src(1-530)(h) (Homo sapiens, UniProt P12931)", "T1 construct": "Src(1-530)", "method_in_brief": "as §1"}, "FGFR4(h)": {"target": "FGFR4(h) (Homo sapiens, UniProt P22455)", "method_in_brief": "as §1"}, "NEK2(h)": {"target": "T2, NEK2(h) (Homo sapiens, UniProt P51955)", "T2 sequence (P51955 1-445)": "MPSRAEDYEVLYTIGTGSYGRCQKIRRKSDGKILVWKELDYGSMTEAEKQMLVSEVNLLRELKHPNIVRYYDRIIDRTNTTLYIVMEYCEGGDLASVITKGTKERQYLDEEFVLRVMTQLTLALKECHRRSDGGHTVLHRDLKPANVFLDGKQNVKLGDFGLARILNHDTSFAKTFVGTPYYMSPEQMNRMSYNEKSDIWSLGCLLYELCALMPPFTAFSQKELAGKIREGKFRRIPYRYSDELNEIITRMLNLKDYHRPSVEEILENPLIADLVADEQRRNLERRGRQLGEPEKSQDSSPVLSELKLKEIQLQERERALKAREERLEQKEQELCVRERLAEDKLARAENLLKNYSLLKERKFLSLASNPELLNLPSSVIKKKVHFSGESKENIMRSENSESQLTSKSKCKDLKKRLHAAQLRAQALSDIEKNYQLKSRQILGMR", "method_in_brief": "as §1"}, "Bmx(h)": {"target": "T3, Bmx(h) (Homo sapiens, UniProt P51813)", "T3 sequence (P51813 1-675)": "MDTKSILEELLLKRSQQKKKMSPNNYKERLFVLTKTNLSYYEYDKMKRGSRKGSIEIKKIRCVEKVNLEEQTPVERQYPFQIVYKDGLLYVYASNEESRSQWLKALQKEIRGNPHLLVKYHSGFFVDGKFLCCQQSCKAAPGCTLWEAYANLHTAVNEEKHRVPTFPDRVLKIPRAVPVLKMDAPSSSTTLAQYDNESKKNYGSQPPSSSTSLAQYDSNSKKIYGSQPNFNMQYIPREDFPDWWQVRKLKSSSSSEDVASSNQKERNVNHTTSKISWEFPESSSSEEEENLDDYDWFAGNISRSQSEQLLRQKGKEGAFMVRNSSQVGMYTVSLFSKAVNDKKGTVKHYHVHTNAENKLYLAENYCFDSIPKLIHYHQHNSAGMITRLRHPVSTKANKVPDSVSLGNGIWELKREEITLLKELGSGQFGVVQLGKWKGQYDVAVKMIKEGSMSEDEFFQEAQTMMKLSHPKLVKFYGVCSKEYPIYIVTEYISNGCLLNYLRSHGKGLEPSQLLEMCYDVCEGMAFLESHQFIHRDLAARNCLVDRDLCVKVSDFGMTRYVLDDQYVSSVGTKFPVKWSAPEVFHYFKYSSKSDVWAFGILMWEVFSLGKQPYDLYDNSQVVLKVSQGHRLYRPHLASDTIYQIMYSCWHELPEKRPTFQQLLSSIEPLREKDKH", "method_in_brief": "as §1"}, "TSSK2(h)": {"target": "T4, TSSK2(h) (Homo sapiens, UniProt Q96PF2)", "T4 sequence (Q96PF2 1-358)": "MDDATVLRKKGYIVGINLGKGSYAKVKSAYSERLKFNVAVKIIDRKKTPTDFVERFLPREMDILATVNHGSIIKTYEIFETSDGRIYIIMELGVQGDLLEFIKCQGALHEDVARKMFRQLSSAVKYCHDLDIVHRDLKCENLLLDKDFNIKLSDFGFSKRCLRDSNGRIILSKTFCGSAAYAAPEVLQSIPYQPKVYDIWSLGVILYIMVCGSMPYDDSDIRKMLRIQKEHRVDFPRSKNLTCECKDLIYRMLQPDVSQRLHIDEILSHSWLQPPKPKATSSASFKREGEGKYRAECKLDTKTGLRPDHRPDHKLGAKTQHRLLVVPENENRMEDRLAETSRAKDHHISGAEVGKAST", "method_in_brief": "as §1"}, "ARK5(h)": {"target": "T5, ARK5(h) (Homo sapiens, UniProt O60285)", "T5 sequence (O60285 1-661)": "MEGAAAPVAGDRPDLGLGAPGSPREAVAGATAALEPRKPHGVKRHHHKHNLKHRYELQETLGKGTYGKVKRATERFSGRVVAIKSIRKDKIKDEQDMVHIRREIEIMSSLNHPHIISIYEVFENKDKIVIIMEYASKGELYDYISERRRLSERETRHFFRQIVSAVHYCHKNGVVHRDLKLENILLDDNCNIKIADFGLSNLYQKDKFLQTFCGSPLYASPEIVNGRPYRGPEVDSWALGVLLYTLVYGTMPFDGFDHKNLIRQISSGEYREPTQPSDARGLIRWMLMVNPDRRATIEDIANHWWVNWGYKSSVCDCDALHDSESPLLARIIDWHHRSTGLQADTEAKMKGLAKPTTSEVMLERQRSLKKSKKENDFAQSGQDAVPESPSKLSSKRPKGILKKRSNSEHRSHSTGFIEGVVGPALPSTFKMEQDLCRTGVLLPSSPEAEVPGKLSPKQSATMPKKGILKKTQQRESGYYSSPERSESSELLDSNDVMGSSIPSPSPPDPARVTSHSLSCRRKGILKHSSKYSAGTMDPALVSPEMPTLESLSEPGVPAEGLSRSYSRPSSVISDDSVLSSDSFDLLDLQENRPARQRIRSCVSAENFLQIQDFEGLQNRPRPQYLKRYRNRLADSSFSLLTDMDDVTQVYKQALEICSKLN", "method_in_brief": "as §1"}, "SRPK1(h)": {"target": "SRPK1(h) (Homo sapiens, UniProt Q96SB4)", "sequence (Q96SB4 whole entry)": "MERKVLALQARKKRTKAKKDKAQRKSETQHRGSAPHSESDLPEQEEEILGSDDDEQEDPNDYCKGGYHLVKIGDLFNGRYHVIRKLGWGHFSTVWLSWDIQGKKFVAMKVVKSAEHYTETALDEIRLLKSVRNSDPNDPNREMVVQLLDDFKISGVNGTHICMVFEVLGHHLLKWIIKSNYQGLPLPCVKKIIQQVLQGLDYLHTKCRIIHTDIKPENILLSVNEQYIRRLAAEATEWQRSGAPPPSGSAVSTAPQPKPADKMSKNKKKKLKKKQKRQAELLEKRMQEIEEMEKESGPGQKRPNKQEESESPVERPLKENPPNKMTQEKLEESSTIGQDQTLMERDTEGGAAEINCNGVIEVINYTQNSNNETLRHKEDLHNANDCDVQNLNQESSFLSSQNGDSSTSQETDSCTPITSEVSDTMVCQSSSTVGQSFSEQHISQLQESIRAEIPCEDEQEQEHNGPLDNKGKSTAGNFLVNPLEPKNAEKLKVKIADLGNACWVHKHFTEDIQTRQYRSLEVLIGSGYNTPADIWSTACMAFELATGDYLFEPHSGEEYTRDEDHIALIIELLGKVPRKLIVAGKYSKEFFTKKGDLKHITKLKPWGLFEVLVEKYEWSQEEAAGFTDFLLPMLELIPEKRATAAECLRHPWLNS", "method_in_brief": "as §1"}, "LIMK1(h)": {"target": "LIMK1(h) (Homo sapiens, UniProt P53667)", "sequence (P53667 whole entry)": "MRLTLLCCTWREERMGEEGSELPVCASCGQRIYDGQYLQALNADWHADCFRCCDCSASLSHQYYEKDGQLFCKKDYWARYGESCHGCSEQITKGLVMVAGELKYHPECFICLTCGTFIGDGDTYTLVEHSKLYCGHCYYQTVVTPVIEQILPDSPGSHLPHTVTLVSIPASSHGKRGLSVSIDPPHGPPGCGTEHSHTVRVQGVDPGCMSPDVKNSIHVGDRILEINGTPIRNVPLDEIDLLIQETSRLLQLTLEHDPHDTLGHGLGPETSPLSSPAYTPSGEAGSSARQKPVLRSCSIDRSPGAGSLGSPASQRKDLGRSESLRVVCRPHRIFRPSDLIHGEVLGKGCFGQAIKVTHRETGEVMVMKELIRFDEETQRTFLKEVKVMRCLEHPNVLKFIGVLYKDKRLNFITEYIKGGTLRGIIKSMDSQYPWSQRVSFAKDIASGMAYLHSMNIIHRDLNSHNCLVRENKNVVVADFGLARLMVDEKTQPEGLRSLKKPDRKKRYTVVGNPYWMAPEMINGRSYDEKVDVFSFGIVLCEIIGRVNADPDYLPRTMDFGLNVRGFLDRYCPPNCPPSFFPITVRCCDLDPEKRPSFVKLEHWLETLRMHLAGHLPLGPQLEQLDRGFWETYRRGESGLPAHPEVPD", "method_in_brief": "as §1"}}, "data": [{"sequence": "HRRIKAWLKKIKALARQLGVAA (Mammalian) [MMI-0500]", "values": [{"measurement": "CaMKIIδ(h) % activity", "setting": "CaMKIIδ(h)", "result": 1, "unit": "%"}, {"measurement": "Src(1-530)(h) % activity", "setting": "Src(1-530)(h)", "result": 21, "unit": "%"}, {"measurement": "FGFR4(h) % activity", "setting": "FGFR4(h)", "result": 3, "unit": "%"}, {"measurement": "NEK2(h) % activity", "setting": "NEK2(h)", "result": 0, "unit": "%"}, {"measurement": "Bmx(h) % activity", "setting": "Bmx(h)", "result": 45, "unit": "%"}, {"measurement": "TSSK2(h) % activity", "setting": "TSSK2(h)", "result": 92, "unit": "%"}, {"measurement": "ARK5(h) % activity", "setting": "ARK5(h)", "result": 20, "unit": "%"}, {"measurement": "SRPK1(h) % activity", "setting": "SRPK1(h)", "result": 80, "unit": "%"}, {"measurement": "LIMK1(h) % activity", "setting": "LIMK1(h)", "result": 87, "unit": "%"}]}, {"sequence": "FAKLAARLYRKALARQLGVAA [MMI-0300]", "values": [{"measurement": "CaMKIIδ(h) % activity", "setting": "CaMKIIδ(h)", "result": 1, "unit": "%"}, {"measurement": "Src(1-530)(h) % activity", "setting": "Src(1-530)(h)", "result": 23, "unit": "%"}, {"measurement": "FGFR4(h) % activity", "setting": "FGFR4(h)", "result": 28, "unit": "%"}, {"measurement": "NEK2(h) % activity", "setting": "NEK2(h)", "result": 78, "unit": "%"}, {"measurement": "TSSK2(h) % activity", "setting": "TSSK2(h)", "result": 98, "unit": "%"}, {"measurement": "ARK5(h) % activity", "setting": "ARK5(h)", "result": 78, "unit": "%"}, {"measurement": "SRPK1(h) % activity", "setting": "SRPK1(h)", "result": 90, "unit": "%"}, {"measurement": "LIMK1(h) % activity", "setting": "LIMK1(h)", "result": 88, "unit": "%"}]}, {"sequence": "YARAAARQARAKALNRQLGVA (Mammalian) [MMI-0200]", "values": [{"measurement": "CaMKIIδ(h) % activity", "setting": "CaMKIIδ(h)", "result": 2, "unit": "%"}, {"measurement": "Src(1-530)(h) % activity", "setting": "Src(1-530)(h)", "result": 75, "unit": "%"}, {"measurement": "FGFR4(h) % activity", "setting": "FGFR4(h)", "result": 75, "unit": "%"}, {"measurement": "NEK2(h) % activity", "setting": "NEK2(h)", "result": 97, "unit": "%"}, {"measurement": "Bmx(h) % activity", "setting": "Bmx(h)", "result": 76, "unit": "%"}, {"measurement": "TSSK2(h) % activity", "setting": "TSSK2(h)", "result": 91, "unit": "%"}, {"measurement": "ARK5(h) % activity", "setting": "ARK5(h)", "result": 93, "unit": "%"}, {"measurement": "SRPK1(h) % activity", "setting": "SRPK1(h)", "result": 93, "unit": "%"}]}, {"sequence": "KAFAKLAARLYRKALARQLGVAA [MMI-0400]", "values": [{"measurement": "CaMKIIδ(h) % activity", "setting": "CaMKIIδ(h)", "result": 2, "unit": "%"}, {"measurement": "Src(1-530)(h) % activity", "setting": "Src(1-530)(h)", "result": 19, "unit": "%"}, {"measurement": "FGFR4(h) % activity", "setting": "FGFR4(h)", "result": 19, "unit": "%"}, {"measurement": "NEK2(h) % activity", "setting": "NEK2(h)", "result": 61, "unit": "%"}, {"measurement": "Bmx(h) % activity", "setting": "Bmx(h)", "result": 26, "unit": "%"}, {"measurement": "TSSK2(h) % activity", "setting": "TSSK2(h)", "result": 94, "unit": "%"}, {"measurement": "ARK5(h) % activity", "setting": "ARK5(h)", "result": 69, "unit": "%"}, {"measurement": "SRPK1(h) % activity", "setting": "SRPK1(h)", "result": 96, "unit": "%"}, {"measurement": "LIMK1(h) % activity", "setting": "LIMK1(h)", "result": 92, "unit": "%"}]}]}
